This note sets out measurements from patent US20260166145A1 (Memorial Sloan Kettering, published 2026).

The IC50 is the concentration that gives 50% inhibition. Read a high IC50 as lower potency.

Assay [1] concerns the target T1, Human CD33-FC protein (R&D Systems) (human, UniProt P20138 18-259).
T1 construct: Bought reagent; also called purified CD33-FC; not shown: Fc part of the bought fusion; it is captured by anti-hIgG Fc biosensors
The assay can be described thus: BLI (Octet RED96e) on captured human CD33-FC; reference is HuM195 scFv. Background: Biolayer interferometry detects binding as a change in optical thickness at a sensor tip.

Assay [2] deals with T1, Human CD33-FC protein (R&D Systems). As to the kind of experiment: competitive ELISA on coated CD33-FC: pre-incubation with increasing HuM195 antibody, then HuM195 scFv at 100 nM, detected with anti-human Fab-HRP; signal normalised to 0 nM HuM195 falls from about 95-100 to about 10 on the axis named Blocked (%).
The target is the same in assay [3]. As to the kind of experiment: BLI (Octet RED96e): human CD33-FC captured on anti-hIgG Fc Capture biosensors, antibody in solution; full-length bivalent HuM195 IgG.
Text: (§1) Equilibrium dissociation constant (Kd) measurement with bio-layer interferometry (BLI) biosensor. Human CD33-FC protein (R&D Systems, Minneapolis, MN) was captured on Anti-hIgG Fc Capture (AHC) Biosensors (ForteBio, Fremont, CA) overnight and blocked with FC. […] The binding graphs were fitted to a Kd constant model.
Assay [4] has the same target. As to the kind of experiment: BLI (Octet RED96e): human CD33-FC captured on anti-hIgG Fc Capture biosensors, scFv in solution; monovalent scFv, not IgG.
Text: as §1

T1 sequence (P20138 18-259 limits assumed): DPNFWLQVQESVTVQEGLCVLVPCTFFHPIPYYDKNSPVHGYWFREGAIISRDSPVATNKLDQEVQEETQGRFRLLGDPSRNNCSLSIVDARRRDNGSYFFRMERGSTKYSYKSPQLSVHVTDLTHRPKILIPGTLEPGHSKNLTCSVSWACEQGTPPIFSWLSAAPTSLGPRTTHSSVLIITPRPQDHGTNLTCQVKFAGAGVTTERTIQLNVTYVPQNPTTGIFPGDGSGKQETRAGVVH

B1: Lintuzumab (HuM195) antibody (antibody, V domains shown)
VH: QVQLVQSGAEVKKPGSSVKVSCKASGYTFTDYNMHWVRQAPGQGLEWIGYIYPYNGGTGYNQKFKSKATITADESTNTAYMELSSLRSEDTAVYYCARGRPAMDYWGQGTLVTVSS
VL: DIQMTQSPSSLSASVGDRVTITCRASESVDNYGISFMNWFQQKPGGAPKLLIYAASNQGSGVPSRFSGSGSGTDFTLTISSLQPDDFATYYCQQSKEVPWTFGQGTKVEIK
notes: also called Hu195; Hu195 antibody
Consider B1, for which, in assay [1], the “fold difference of Kd against HuM195 scFv” value was about 30 fold. Moreover, the IC50 in assay [2] stood at 0.716 nM. Moreover, the Kd in assay [3] came out at 0.0627 nM.

B2: HuM195 single-chain variable fragment (scFv), purified, with C-terminal His-tag (scFv)
scFv: QVQLVQSGAEVKKPGSSVKVSCKASGYTFTDYNMHWVRQAPGQGLEWIGYIYPYNGGTGYNQKFKSKATITADESTNTAYMELSSLRSEDTAVYYCARGRPAMDYWGQGTLVTVSSGGGGSGGGGSGGGGSDIQMTQSPSSLSASVGDRVTITCRASESVDNYGISFMNWFQQKPGGAPKLLIYAASNQGSGVPSRFSGSGSGTDFTLTISSLQPDDFATYYCQQSKEVPWTFGQGTKVEIKHHHHHHHH
notes: Expressed from the pSF-CMV-Puro-IL2 secretion plasmid in FreeStyle 293 cells and purified on a Histrap column; Monomeric by size exclusion chromatography; also called HuM195 scFv; Hu195 scFv
Consider B2, for which the Kd in assay [4] was found to be 1.81 nM.
